These results are taken from patent US20170355769A1 (AbbVie / Abbott, published 2017).

Assay [1] has as its target T1, Human full length B7-H3 (human, UniProt Q5ZPR3 29-534).
T1 construct: On 3T12 fibroblasts expressing full length human B7-H3 or on NCI-H1650 cells; signal peptide residues 1-28 stated; also called huB7-H3; CD276
T1 sequence: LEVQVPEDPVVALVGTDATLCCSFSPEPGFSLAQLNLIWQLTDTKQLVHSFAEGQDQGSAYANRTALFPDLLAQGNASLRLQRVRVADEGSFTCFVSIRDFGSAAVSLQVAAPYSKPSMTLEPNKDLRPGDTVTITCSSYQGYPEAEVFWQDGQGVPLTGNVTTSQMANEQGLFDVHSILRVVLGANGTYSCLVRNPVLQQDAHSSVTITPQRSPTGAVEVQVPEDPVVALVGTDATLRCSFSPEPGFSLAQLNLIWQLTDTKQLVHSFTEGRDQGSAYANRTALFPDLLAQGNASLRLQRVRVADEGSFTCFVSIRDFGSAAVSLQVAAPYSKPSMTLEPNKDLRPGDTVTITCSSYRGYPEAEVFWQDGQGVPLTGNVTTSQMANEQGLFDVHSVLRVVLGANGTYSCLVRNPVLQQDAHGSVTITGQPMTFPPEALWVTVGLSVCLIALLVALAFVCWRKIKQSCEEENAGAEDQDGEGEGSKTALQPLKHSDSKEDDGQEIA
The assay can be described thus: FACS, 3T12 transfectants. As to the method: (§1) A selection of hits were subcloned using the MoFlo (Beckman, Indianapolis, Ind., US) by depositing a single cell per well into 96 well cell culture plates to ensure clonality of the cell line. Resulting colonies were screened for specificity by FACS using mouse 3T12 fibroblast cell lines expressing the human B7-H3, cynomolgous B7-H3 or mouse B7-H3. Isotype of each monoclonal antibody was determined using the Mouse Monoclonal Isostyping Kit (Roche, No. 11-493-027-001, Indianapolis, Ind., USA).

The target in assay [2] is T2, Cynomolgous B7-H3 on cells (cynomolgus).
T2 construct: whole, on cells; also called cyB7-H3; cyno B7-H3
The assay is described as follows: FACS, 3T12 transfectants. As to the method: as §1

For another assay, the target named is T3, Mouse B7-H3 on cells (mouse, UniProt Q8VE98 29-316).
T3 construct: whole, on cells
T3 sequence (looked up): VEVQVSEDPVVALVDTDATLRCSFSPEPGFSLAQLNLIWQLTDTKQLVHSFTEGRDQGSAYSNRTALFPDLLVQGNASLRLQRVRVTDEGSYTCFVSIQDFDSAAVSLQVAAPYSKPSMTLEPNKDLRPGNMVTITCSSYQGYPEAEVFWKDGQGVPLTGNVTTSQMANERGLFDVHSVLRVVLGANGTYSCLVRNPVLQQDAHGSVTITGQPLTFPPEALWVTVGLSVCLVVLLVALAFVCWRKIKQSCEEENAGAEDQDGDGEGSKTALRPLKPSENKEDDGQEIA
The assay can be described thus: FACS, 3T12 transfectants. The protocol: as §1

For assay [3], the target named is T4, Human B7-H3-ECD (His tag) (human, UniProt Q5ZPR3 29-461).
T4 construct: SPR analyte; also called huB7-H3; soluble ECD of human B7-H3
T4 sequence: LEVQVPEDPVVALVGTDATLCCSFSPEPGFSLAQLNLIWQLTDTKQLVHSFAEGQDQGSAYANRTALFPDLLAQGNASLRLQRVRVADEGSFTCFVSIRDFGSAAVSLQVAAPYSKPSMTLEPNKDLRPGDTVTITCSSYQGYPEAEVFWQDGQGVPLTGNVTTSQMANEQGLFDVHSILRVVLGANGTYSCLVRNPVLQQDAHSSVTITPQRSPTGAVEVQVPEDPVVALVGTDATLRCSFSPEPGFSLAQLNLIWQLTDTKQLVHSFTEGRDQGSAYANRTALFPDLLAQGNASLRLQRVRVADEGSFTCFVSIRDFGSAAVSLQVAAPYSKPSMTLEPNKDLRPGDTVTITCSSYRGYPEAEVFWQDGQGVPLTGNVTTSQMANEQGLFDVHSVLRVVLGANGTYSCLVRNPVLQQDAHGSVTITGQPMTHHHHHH
The assay is described as follows: SPR, mAb captured, ECD analyte.

The next assay has as its target T5, Cyno B7-H3-ECD (his tag) (cynomolgus).
T5 construct: SPR analyte; also called soluble ECD of cyno B7-H3
T5 chain: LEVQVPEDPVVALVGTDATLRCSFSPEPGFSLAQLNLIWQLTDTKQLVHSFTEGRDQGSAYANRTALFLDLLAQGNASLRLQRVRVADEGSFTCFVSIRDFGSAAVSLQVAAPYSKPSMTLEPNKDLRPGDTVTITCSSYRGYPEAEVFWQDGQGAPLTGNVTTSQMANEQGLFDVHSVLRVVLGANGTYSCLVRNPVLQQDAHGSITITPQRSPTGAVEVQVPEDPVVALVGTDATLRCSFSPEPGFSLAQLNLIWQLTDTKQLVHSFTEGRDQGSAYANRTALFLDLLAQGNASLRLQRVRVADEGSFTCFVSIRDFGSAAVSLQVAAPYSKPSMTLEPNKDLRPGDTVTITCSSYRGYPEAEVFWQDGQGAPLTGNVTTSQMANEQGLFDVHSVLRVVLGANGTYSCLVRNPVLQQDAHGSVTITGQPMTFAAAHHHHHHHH
The assay can be described thus: SPR, mAb captured, ECD analyte.

The target of assay [4] is T1, Human full length B7-H3. The assay is described as follows: FACS (Example 6 method). The protocol:
Cells were harvested from flasks when approximately 80% confluent using Gibco® Cell Dissociation Buffer. Cells were washed once in PBS/1% FBS (FACS buffer) then resuspended at 2.5×10⁶ cells/mL in FACS buffer. 100 μL of cells/well were added to a round bottom 96-well plate. 10 μL of a 10× concentration of mAb/ADC (final concentrations are indicated the figures). Wells were washed twice with FACS buffer and resuspended in 50 μL of secondary Ab (AlexaFluor 488) diluted in FACS buffer. The plate was incubated at 4° C. for one hour and washed twice with FACS buffer. Cells were resuspended in 100 μL of PBS/1% formaldehyde and analyzed on a Becton Dickinson LSRII flow cytometer. Data was analyzed using WinList flow cytometry analysis software.
The parental chAb18 from which the variants were derived was also tested as a comparator.

B1: Ab17 (antibody, mouse IgG2b, V domains shown)
VH: EVKLVESGGGLVQPGGSLKLSCAASGFTFSSYIMSWVRQTPEKRLEWVASIVSSNITYYPDSMKGRFTISRDNARNILYLQMSSLKSEDTAMYYCARSGTRAWFAYWGQGTLVTVSA
VL: DIVLTQSPASLAVSLGQRATISCRASKSVSTSAYSYMHWYQQKPGQPPKLLIYLASNLESGVPARFSGSGSGTDFTLNIHPVEEEDAATYYCQHSRELPYTFGGGTKLEIK
notes: mouse IgG2b/k
On to B1, for which the values for the EC50 (in the assay with Human full length B7-H3 [1]; in assay [2]; with Mouse B7-H3 on cells) were 2.75 nM, 2.6 nM and 2.39 nM, respectively. The results for the dissociation constant (Kd) (in assay [3]; in the assay with Cyno B7-H3-ECD (his tag)) were 0.034 nM and ≤ 0.019 nM, respectively. The koff was 1.9e-05 s⁻¹ in assay [3] and ≤ 1e-05 s⁻¹ with Cyno B7-H3-ECD (his tag). Besides, the kon in assay [3] came out at 540000 M⁻¹ s⁻¹; with Cyno B7-H3-ECD (his tag) it was 510000 M⁻¹ s⁻¹.

B2: Ab2 (antibody, mouse IgG1, V domains shown)
VH: QVQLQQPGAELVKPGASVKLSCKASGYTFTSYWMHWVKQRPGQGLEWIGMIHPDSGTTNYNEKFRSKATLTVDKSSSTAYMQLSSLTSEDSAVYYCAVYYGSTYWYFDVWGTGTTVTVSS
VL: DVVMTQTPLSLPVSLGDQAYISCRSSQSLVHINGNTYLHWYRQKPGQSPKLLIYKVSNRFSGVPDRFSGSGSGTDFTLKISRVEAEDLGVYFCSQSTHFPFTFGSGTKLEIK
notes: mouse IgG1/k
Take B2: the EC50 in the assay with Human full length B7-H3 [1] was 1.7 nM; in assay [2], 1.5 nM; with Mouse B7-H3 on cells, 1 nM. Also, the figures for the Kd (in assay [3]; with Cyno B7-H3-ECD (his tag)) were 24 nM and 50 nM, respectively. For the same molecule, the off-rate (koff) in assay [3] was 0.0029 s⁻¹; in the assay with Cyno B7-H3-ECD (his tag) it was 0.011 s⁻¹. In addition, the kon in assay [3] was found to be 120000 M⁻¹ s⁻¹; with Cyno B7-H3-ECD (his tag) it was 230000 M⁻¹ s⁻¹.

B3: Ab11 (antibody, mouse IgG1, V domains shown)
VH: EVKLVESGGGLVQPGGSLRLSCATSGFTFTNYYMSWVRQPPGKALEWLGFIRNKANDYTTEYSASVKGRFTISRDNSQSILYLQMNTLRAEDSATYYCARESPGNPFAYWGQGTLVTVSA
VL: DIVMTQSPSSLTVTAGEKVTMTCKSSQSLLNSGTQKNFLTWYQQKPGQPPKLLIYWASTRESGVPDRFTGSGSGTDFTLTISSVQAEDLAVYFCQNDYIYPLTFGAGTKLELK
notes: mouse IgG1/k
Regarding B3, the results for the EC50 (in the assay with Human full length B7-H3 [1]; in assay [2]; with Mouse B7-H3 on cells) were 23.4 nM, 2.03 nM and 569 nM, respectively. The Kd turned out to be 45 nM in assay [3] and 2.6 nM with Cyno B7-H3-ECD (his tag). For the same molecule, the koff was determined as 0.00089 s⁻¹ in assay [3] and 7.2e-05 s⁻¹ with Cyno B7-H3-ECD (his tag). Also, the kon in assay [3] is 20000 M⁻¹ s⁻¹; with Cyno B7-H3-ECD (his tag) it was 27000 M⁻¹ s⁻¹.

B4: huAb18v10-CZ (antibody, V domains shown)
VH: EVQLVQSGAEVKKPGSSVKVSCKASGYSFTSYTIHWVRQAPGQGLEWMGYINPNSRNTDYAQKFQGRVTLTADKSTSTAYMELSSLRSEDTAVYYCARYSGSTPYWYFDVWGQGTTVTVSS
VL: DIQLTQSPSFLSASVGDRVTITCRASSSVSYMNWYQQKPGKAPKPWIYATSNLASGVPSRFSVSGSGTEHTLTISSLQPEDFATYYCQQWSSNPLTFGQGTKLEIK
modifications: synthon CZ on reduced interchain Cys
notes: ADC, DAR 2.7
In the assay with Human full length B7-H3 [4], B4 came in with an EC50 of 1.19 nM.

B5: huAb18v3-CZ (antibody, V domains shown)
VH: EVQLVQSGAEVKKPGSSVKVSCKASGYSFTSYTIHWVRQAPGQGLEWIGYINPNSRNTDYNQKFKDRTTLTADRSTSTAYMELSSLRSEDTAVYYCARYSGSTPYWYFDVWGQGTTVTVSS
VL: DIQLTQSPSFLSASVGDRVTITCRASSSVSYMNWYQQKPGKSPKPWIYATSNLASGVPSRFSVSVSGTEHTLTISSLQPEDFATYYCQQWSSNPLTFGQGTKLEIK
modifications: synthon CZ on reduced interchain Cys
notes: ADC, DAR 2.4
As to B5, the EC50 in the assay with Human full length B7-H3 [4] came to 1.27 nM.

B6: huAb18v1-CZ (antibody, V domains shown)
VH: EVQLVQSGAEVKKPGSSVKVSCKASGYSFTSYTIHWVRQAPGQGLEWMGYINPNSRNTDYNQKFKDRVTITADKSTSTAYMELSSLRSEDTAVYYCARYSGSTPYWYFDVWGQGTTVTVSS
VL: DIQLTQSPSFLSASVGDRVTITCRASSSVSYMNWYQQKPGKAPKLLIYATSNLASGVPSRFSGSGSGTEFTLTISSLQPEDFATYYCQQWSSNPLTFGQGTKLEIK
modifications: synthon CZ on reduced interchain Cys
notes: ADC, DAR 2.6
B6 gave an EC50 with Human full length B7-H3 [4] of 1.27 nM.

B7: huAb18v2-CZ (antibody, V domains shown)
VH: EVQLVQSGAEVKKPGSSVKVSCKASGYSFTSYTIHWVRQAPGQGLEWMGYINPNSRNTDYAQKFQGRVTLTADKSTSTAYMELSSLRSEDTAVYYCARYSGSTPYWYFDVWGQGTTVTVSS
VL: DIQLTQSPSFLSASVGDRVTITCRASSSVSYMNWYQQKPGKAPKLLIYATSNLASGVPSRFSGSGSGTEFTLTISSLQPEDFATYYCQQWSSNPLTFGQGTKLEIK
modifications: synthon CZ on reduced interchain Cys
notes: ADC, DAR 1.8
Turning to B7, a half-maximal response with Human full length B7-H3 [4] (EC50) required 2.25 nM.

B8: Ab16 (antibody, mouse IgG1, V domains shown)
VH: EVKLLESGGGLVQPGGSLKLSCAASGFDFSRYWMSWVRQAPGKGLEWIGEINPDSSTINYTPSLKDKFIISRDNAKNTLYLQMSKVRSEDTALYYCARPGFGNYIYAMDYWGQGTSVTVSS
VL: DIQMTQTTSSLSASLGDRVTINCRASQDISNFLNWYQQKPDGTVKLLIYYTSRLYLGVPSRFSGSGSGTDYSLTISNLEQEDIATYFCQQGNTLPPTFGGGTKLEIK
notes: mouse IgG1/k
B8: the EC50 with Human full length B7-H3 [1] was 3.94 nM; in assay [2], 4.28 nM; with Mouse B7-H3 on cells, 319 nM. The Kd in assay [3] worked out at 24 nM; in the assay with Cyno B7-H3-ECD (his tag), 7.5 nM. Also, the koff in assay [3] is 0.0032 s⁻¹; with Cyno B7-H3-ECD (his tag) it was 0.0056 s⁻¹. In addition, the kon stood at 140000 M⁻¹ s⁻¹ in assay [3] and 750000 M⁻¹ s⁻¹ in the assay with Cyno B7-H3-ECD (his tag).

B9: Ab6 (antibody, mouse IgG1, V domains shown)
VH: QVQLQQSGAELMKPGASVKISCKATGYTFSRYWIEWVKQRPGHGLEWIGEILPGSGSTNYNEKFKGKATFTADTSSNTAYMQVSSLTSEDSAVHYCARRGYGYVPYALDYWGQGTSVTVSS
VL: EIQMTQTTSSLSASLGDRVTISCRASQDISNSLNWYQQKPDGTVNLLIYYTSRLYSGVPSRFSGSGSGTDYSLTISNLEQEDIATYFCQQGNTLPYTFGGGTKLEIK
notes: mouse IgG1/k
On to B9, for which the figures for the EC50 (with Human full length B7-H3 [1]; in assay [2]) were 1.59 nM and 1.53 nM, respectively. The binding result in the assay with Mouse B7-H3 on cells is “no binding”. The figures for the Kd (in assay [3]; with Cyno B7-H3-ECD (his tag)) were 840 nM and 410 nM, respectively. Also, the figures for the koff (in assay [3]; in the assay with Cyno B7-H3-ECD (his tag)) were 0.01 s⁻¹ and 0.012 s⁻¹, respectively. In addition, the kon in assay [3] was 12000 M⁻¹ s⁻¹; with Cyno B7-H3-ECD (his tag), 28000 M⁻¹ s⁻¹.
